# B1: 15B2GL monoclonal antibody (antibody, V domains shown)
# VH: EVQLVESGGGLVKPGGSLRLSCAASGFTFRSYSMNWVRQAPGKGLEWVSSISGSSNYIYYADSVKGRFTISRDNAKNSLYLQMNSLRAEDTAVYYCARGGNYYVEYFQYWGQGTLVTVSS
# VL: EIVLTQSPGTLSLSPGERATLSCRASQYISSNYLAWYQQKPGQAPRLLIYGASNRATGIPDRFSGSGSGTDFTLTISRLEPEDFAVYYCQQYGSSPITFGQGTKLEIK
# notes: Clone 15B2 was converted into human IgG1 and germlined at four residues (15B2GL); also called germlined 15B2
# How the values were obtained:
# [1] = biological target: T1, membrane-bound human BCMA (human, UniProt Q02223 1-184); assay: flow cytometry on NCI-H929 cells (endogenous BCMA), printed as apparent affinity
# T1 construct: whole, on cells; also called huBCMA
# T1 sequence (looked up): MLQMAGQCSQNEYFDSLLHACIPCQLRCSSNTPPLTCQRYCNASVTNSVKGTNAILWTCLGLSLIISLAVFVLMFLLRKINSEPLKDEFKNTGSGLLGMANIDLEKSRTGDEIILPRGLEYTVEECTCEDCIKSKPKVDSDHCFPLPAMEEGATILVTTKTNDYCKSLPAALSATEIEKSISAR
# Description: (§1) Binding of 15B2GL, I09, L15, and J6M0 to membrane-bound human BCMA was evaluated using flow cytometry in multiple myeloma and plasma cell leukemia cell lines that endogenously express BCMA (NCI-H929 and MM.1S, respectively). Binding of 15B2GL, 109, L15 to membrane-bound human BCMA was also evaluated in Ad293 cells expressing human BCMA. Binding assays were performed by incubating the anti-BCMA antibodies with 200,000 cells for 30 minutes at 4° C. followed by two washes with PBS+2% FBS (FACS Buffer). A range of antibody concentrations were evaluated using a 12-point, 3-fold dilution series. Cells were then incubated with 5 ug/mL goat-anti human IgG-AF647 secondary antibodies (Thermo Fisher Scientific, Waltham, Mass.) at 4° C., followed by two washes in PBS+2% FBS. Cells were resuspended in 200 uL PBS+2% FBS+DAPI.
# (§2) Fluorescence of live, single cells was measured using a BD Biosciences LSRII cytometer and BD FACSDiva™ software (BD Biosciences, San Jose, Calif.). Data were analyzed using FlowJo™ software (FlowJo, LLC, Ashland, Oreg.). Mean fluorescence intensity values were used to determine percentage bound and EC50 was determined using Prism™ software (GraphPad Software Inc, La Jolla, Calif.).
# [2] = biological target: T1, membrane-bound human BCMA; assay: FACS on Ad293 cells stably expressing human BCMA, Alexa Fluor 647 secondary antibody, raw MFI (geo mean)
# Description: (§3) Antibodies 4679, 756, and 15B2GL (as described below) were analyzed by FACS to evaluate binding of antibodies to human BCMA, cynomolgus monkey BCMA, TACI, and BAFF-R using recombinant forms of the receptors stably expressed on Ad293 cells. Binding assays were performed by incubating antibodies 4679, 756, and 15B2GL with 200,000 cells at 4° C. for 45 minutes followed by two washes with PBS+2% FBS. Cells were then incubated with Alexa-Fluor® 647-labeled secondary antibodies at 4° C., followed by two washes in PBS+2% FBS. Anti-BAFF-R, anti-TACI, and anti-human BCMA-APC labeled antibodies were added according to manufacturer's recommended dilution in control wells. Cells were resuspended in 200 uL PBS+2% FBS+DAPI and antibody binding to live cells was analyzed using a Becton Dickinson™ Biosciences LSRII cytometer.
# [3] = biological target: T2, TACI stably expressed on Ad293 cells (Homo sapiens (Human), UniProt O14836 1-293); assay: FACS on Ad293 cells stably expressing TACI, Alexa Fluor 647 secondary antibody, raw MFI (geo mean)
# T2 sequence: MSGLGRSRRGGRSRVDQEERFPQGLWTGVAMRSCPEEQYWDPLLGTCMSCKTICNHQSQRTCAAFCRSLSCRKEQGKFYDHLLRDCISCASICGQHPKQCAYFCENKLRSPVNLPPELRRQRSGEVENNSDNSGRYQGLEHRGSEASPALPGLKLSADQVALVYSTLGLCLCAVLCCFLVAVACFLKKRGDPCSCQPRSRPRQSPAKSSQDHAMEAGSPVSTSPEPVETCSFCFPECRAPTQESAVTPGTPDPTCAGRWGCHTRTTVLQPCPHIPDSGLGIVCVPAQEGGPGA
# Description: as §3
# [4] = biological target: T1, membrane-bound human BCMA; assay: flow cytometry on MM.1S cells (endogenous BCMA), printed as apparent affinity
# Description: as §1, §2
# [5] = biological target: T3, monomeric human sBCMA (GenScript) (human, UniProt Q02223 1-54); assay: SPR (ProteOn XPR36), antibody captured by anti-Fc, sBCMA 100-6.25 nM as analyte
# T3 construct: extracellular domain; also called monomeric BCMA; monomeric (soluble) BCMA
# T3 sequence (looked up): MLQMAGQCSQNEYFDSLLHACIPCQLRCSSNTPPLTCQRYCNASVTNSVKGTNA
# Description: The binding of 15B2GL monoclonal antibody and optimized clones I09, L15, P10, N22, and M02 (described in Example 1) was assessed using monomeric human sBCMA (GenScript, Piscataway, N.J.) using a ProteOn™ XPR36 instrument (Bio-Rad, Hercules, Calif.). The binding of J6M0 also was assessed for comparison. Standard amine coupling was used to immobilize 25 μg/ml anti-Fc polyclonal antibody (Jackson ImmunoResearch, West Grove, Pa.) prepared in 10 mM sodium acetate buffer (pH 4.5) to the surface of a ProteOn™ GLC biosensor chip (Bio-Rad, Hercules, Calif.) pre-activated with 20 mM EDAC (1-ethyl-3-(3-dimethylaminopropyl)carbodiimide hydrochloride) and 5 mM Sulfo-NHS (N-hydroxysulfosuccinimide) at a density of ˜200-600 resonance units (RU). 15B2GL, I09, L15, P10, N22, M02, and J6M0 were subsequently injected at a concentration of 1 μg/ml for capture by the immobilized anti-Fc polyclonal antibody. The sensorgram was recorded by flowing two-fold serial dilutions of sBCMA prepared in PBS (pH 7.4) with 0.005% (v/v) Tween®-20, ranging from 100-6.25 nM, over the captured surface for 150 seconds at 75 μL/minute with dissociation time of 600 seconds. ProteOn™ data analysis software was used to analyze the data.
# [6] = biological target: T4, cynomolgus monkey BCMA stably expressed on Ad293 cells (cynomolgus monkey, UniProt A0A2K5UD97 1-183); assay: FACS on Ad293 cells stably expressing cynomolgus BCMA, Alexa Fluor 647 secondary antibody, raw MFI (geo mean)
# T4 construct: whole, on cells; also called cynoBCMA; Cyno BCMA
# Description: as §3
# [7] = biological target: T1, membrane-bound human BCMA; assay: flow cytometry on Ad293 cells expressing human BCMA, printed as apparent affinity
# Description: as §1, §2
# [8] = biological target: T5, BAFF-R stably expressed on Ad293 cells (Homo sapiens (Human), UniProt Q96RJ3 1-184); assay: FACS on Ad293 cells stably expressing BAFF-R, Alexa Fluor 647 secondary antibody, raw MFI (geo mean)
# T5 sequence: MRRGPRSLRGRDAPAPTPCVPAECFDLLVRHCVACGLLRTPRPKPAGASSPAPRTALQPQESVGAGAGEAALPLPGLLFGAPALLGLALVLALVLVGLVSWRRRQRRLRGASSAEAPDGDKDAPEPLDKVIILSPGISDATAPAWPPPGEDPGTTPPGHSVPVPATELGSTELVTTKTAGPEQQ
# Description: as §3
# T4 sequence (A0A2K5UD97 entry or part of it): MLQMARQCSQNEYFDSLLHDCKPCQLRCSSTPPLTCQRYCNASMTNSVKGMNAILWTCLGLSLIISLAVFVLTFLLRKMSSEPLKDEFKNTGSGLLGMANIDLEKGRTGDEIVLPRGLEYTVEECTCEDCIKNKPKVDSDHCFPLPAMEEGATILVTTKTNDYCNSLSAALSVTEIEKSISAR
binder,measurement,setting,value
B1,EC50,[1],3.14 nM
same,EC50 (read off the curve),[2],~0.6 µg/mL
same,binding result,[3],no binding (tested: 100 ug/mL)
same,EC50,[4],2.56 nM
same,Kd,[5],60.7 nM
same,EC50 (read off the curve),[6],~1 µg/mL
same,EC50,[7],3.87 nM
same,binding result,[8],no binding (tested: 100 ug/mL)

# — patent US20210214460A1 (AstraZeneca / MedImmune, published 2021)
